# Target: GST-DLG1 PDZ domains 1-2 fusion protein (human) (UniProt Q12959)
# Assay: competition G assay, 100 uM unlabeled 8-mer against 20 uM biotin-labeled AA2L on GST-DLG1
substance,measurement,value
eight amino acid CLASP-2 peptide MTSSSSVV (unlabeled),percent inhibition,> 50%

# Source: EP2385124A2
